Test [1] concerns the target SARS-CoV-2 RBD recombinant protein (SARS-CoV-2, Wuhan-Hu-1 (QHD43416.1), UniProt P0DTC2). Briefly: BLI. For orientation: In BLI a coated tip is dipped into the sample, and binding shifts an interference pattern.
The target in test [2] is SARS-CoV RBD recombinant protein (SARS-CoV; strain of construct not …, UniProt Q19QX0). Briefly: BLI.

B1: MW06 (antibody, V domains shown)
VH: EVQLLESGGGLVQPGGSLRLSCAASGFTFSSYAMNWVRQAPGKGLEWVSVISGSGGSTYYADSVRGRFTISRDNSKNTLYLQMNSLRAEDTAVYCCAKGYYYDSSGYYFREDAFDIWGQGTLVTVSS
VL: DIQMTQSPSAMSASVGDRVTITCRASQGISNYLAWFQQKPGKVPKRLIYAASSLQSGVPSRFSGSGSGTEFTLTISSLQPEDFATYYCLQHNSYPYTFGQGTKLEIK
Usually Kd stands for the constant that tells how readily two partners part at equilibrium. Take B1: the Kd turned out to be 5.48 nM in test [1] and 12.3 nM in test [2].

B2: MW05 (antibody, V domains shown)
VH: EVQLVQSGAEVKKPGSSVKVSCKASGGTFSSYAISWVRQAPGQGLEWMGRIIPIFGSSNYAQKFQGRVTITADESTSTAYMELSSLRSEDTAVYYCAESPLGGGSGYSVSWFDPWGQGTLVTVSS
VL: not shown
B2: in test [1], the binding result is given as “binds”.

These data come from publication PMC8317929 (mAbs, 2021).
